# According to the supplement of paper PMC9112550, “Optimization of the antimicrobial peptide Bac7 by deep mutational scanning” (BMC Biology, 2022):
# System: Escherichia coli TOP10
# Test: shrunken log2 fold change of peptide-encoding DNA abundance (4.5 h post-induction vs induction); higher = less antimicrobial activity (less host growth inhibition)
# Conditions: time post-induction: 4.5 h; library: site-saturation at positions 5, 18, 19, 20
# 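Note: peptides expressed intracellularly from a pBAD plasmid library in pooled LB shake-flask culture, induced with 0.3% L-arabinose, DNA abundance read by NGS, three biological replicates, DESeq2 with apeglm shrinkage.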
row,Sequence,shrunken log2 fold change
1,RRIRHRPPRLPRPRPRPGTEPRP,-0.0642
2,RRIRARPPRLPRPRPRPLSMPRP,-0.129
3,RRIRRRPPRLPRPRPRPVMFPRP,0.155
4,RRIRPRPPRLPRPRPRPMRWPRP,0.707
5,RRIRSRPPRLPRPRPRPTDGPRP,-0.115
6,RRIRTRPPRLPRPRPRPLSIPRP,-0.487
7,RRIRMRPPRLPRPRPRPGAWPRP,0.122
8,RRIRNRPPRLPRPRPRPCPQPRP,0.0087
9,RRIRERPPRLPRPRPRPFFYPRP,-0.258
10,RRIRDRPPRLPRPRPRPQSQPRP,0.112
11,RRIRERPPRLPRPRPRPEDLPRP,0.0648
12,RRIRFRPPRLPRPRPRPKATPRP,-0.061
13,RRIRNRPPRLPRPRPRPGSIPRP,-0.00285
14,RRIRNRPPRLPRPRPRPNTEPRP,-0.206
15,RRIRIRPPRLPRPRPRPSAKPRP,-0.0328
16,RRIRARPPRLPRPRPRPMCEPRP,0.797
17,RRIRSRPPRLPRPRPRPACQPRP,0.0147
18,RRIRVRPPRLPRPRPRPIERPRP,0.0557
19,RRIRHRPPRLPRPRPRPLITPRP,-0.324
20,RRIRLRPPRLPRPRPRPWSYPRP,-1.41
21,RRIRGRPPRLPRPRPRPIESPRP,0.108
22,RRIRRRPPRLPRPRPRPHLAPRP,-0.0318
23,RRIRSRPPRLPRPRPRPVPNPRP,0.105
24,RRIRRRPPRLPRPRPRPDQHPRP,0.552
25,RRIRIRPPRLPRPRPRPNIEPRP,-0.0607

row,Sequence,shrunken log2 fold change
1,RRIRLRPPRLPRPRPRPLIRPRP,-0.547
2,RRIRLRPPRLPRPRPRPVTYPRP,-0.0255
3,RRIRCRPPRLPRPRPRPKAHPRP,0.205
4,RRIRPRPPRLPRPRPRPRDGPRP,0.694
5,RRIRPRPPRLPRPRPRPWYMPRP,-0.247
6,RRIRFRPPRLPRPRPRPDWCPRP,-0.00301
7,RRIRKRPPRLPRPRPRPAGYPRP,0.0743
8,RRIRVRPPRLPRPRPRPWSTPRP,0.00921
9,RRIRNRPPRLPRPRPRPNIIPRP,-0.784
10,RRIRQRPPRLPRPRPRPELRPRP,-0.043
11,RRIRMRPPRLPRPRPRPQQPPRP,0.0363
12,RRIRPRPPRLPRPRPRPMRYPRP,0.0689
13,RRIRNRPPRLPRPRPRPCPTPRP,-0.0624
14,RRIRFRPPRLPRPRPRPVHLPRP,-0.0117
15,RRIRSRPPRLPRPRPRPEDMPRP,-0.088
16,RRIRPRPPRLPRPRPRPFQDPRP,-0.0806
17,RRIRVRPPRLPRPRPRPCVMPRP,-0.0841
18,RRIRPRPPRLPRPRPRPEKQPRP,-0.0353
19,RRIRGRPPRLPRPRPRPPFPPRP,1.17
20,RRIRIRPPRLPRPRPRPSWWPRP,-0.059
21,RRIRLRPPRLPRPRPRPMHHPRP,0.0581
22,RRIRSRPPRLPRPRPRPATKPRP,0.161
23,RRIRFRPPRLPRPRPRPVIIPRP,-0.415
24,RRIRCRPPRLPRPRPRPYAEPRP,-0.0578
25,RRIRVRPPRLPRPRPRPVGSPRP,0.289

row,Sequence,shrunken log2 fold change
1,RRIRMRPPRLPRPRPRPPAQPRP,1.08
2,RRIRRRPPRLPRPRPRPQGHPRP,0.071
3,RRIRARPPRLPRPRPRPLGMPRP,0.0985
4,RRIRKRPPRLPRPRPRPYNLPRP,-0.119
5,RRIRVRPPRLPRPRPRPIEQPRP,-0.14
6,RRIRPRPPRLPRPRPRPSLTPRP,-0.22
7,RRIRVRPPRLPRPRPRPTATPRP,0.272
8,RRIRKRPPRLPRPRPRPTNNPRP,-0.2
9,RRIRFRPPRLPRPRPRPQNHPRP,-0.619
10,RRIRCRPPRLPRPRPRPMEYPRP,-0.17
11,RRIRHRPPRLPRPRPRPCGMPRP,-0.0838
12,RRIRPRPPRLPRPRPRPTLWPRP,0.299
13,RRIRARPPRLPRPRPRPVIIPRP,-0.104
14,RRIRCRPPRLPRPRPRPLEEPRP,0.408
15,RRIRGRPPRLPRPRPRPSNHPRP,-0.145
16,RRIRKRPPRLPRPRPRPKIVPRP,0.0401
17,RRIRGRPPRLPRPRPRPHKLPRP,0.213
18,RRIRGRPPRLPRPRPRPDAQPRP,2.38
19,RRIRWRPPRLPRPRPRPYVEPRP,-0.446
20,RRIRMRPPRLPRPRPRPKKWPRP,0.962
21,RRIRVRPPRLPRPRPRPTYYPRP,-0.315
22,RRIRTRPPRLPRPRPRPNYAPRP,0.0202
23,RRIRNRPPRLPRPRPRPWTVPRP,-0.0833
24,RRIRRRPPRLPRPRPRPGLAPRP,0.763
25,RRIRMRPPRLPRPRPRPVDYPRP,-0.0574

row,Sequence,shrunken log2 fold change
1,RRIRVRPPRLPRPRPRPQRKPRP,0.0451
2,RRIRARPPRLPRPRPRPQGFPRP,0.807
3,RRIRQRPPRLPRPRPRPDKPPRP,-0.214
4,RRIRIRPPRLPRPRPRPCTMPRP,-0.0242
5,RRIRMRPPRLPRPRPRPKTDPRP,1.32
6,RRIRDRPPRLPRPRPRPREYPRP,0.306
7,RRIRIRPPRLPRPRPRPDRDPRP,-0.0646
8,RRIRERPPRLPRPRPRPYSDPRP,-0.308
9,RRIRWRPPRLPRPRPRPTQIPRP,0.132
10,RRIRLRPPRLPRPRPRPRQCPRP,0.283
11,RRIRCRPPRLPRPRPRPPVEPRP,0.35
12,RRIRYRPPRLPRPRPRPMSYPRP,-0.0389
13,RRIRQRPPRLPRPRPRPTGKPRP,-0.00964
14,RRIRTRPPRLPRPRPRPWNYPRP,-0.567
15,RRIRGRPPRLPRPRPRPAFAPRP,0.89
16,RRIRPRPPRLPRPRPRPQHMPRP,-0.537
17,RRIRPRPPRLPRPRPRPEIYPRP,0.0694
18,RRIRKRPPRLPRPRPRPYRHPRP,-1.11
19,RRIRIRPPRLPRPRPRPPRCPRP,0.0758
20,RRIRKRPPRLPRPRPRPTLAPRP,1.19
21,RRIRQRPPRLPRPRPRPRTEPRP,2.94
22,RRIRVRPPRLPRPRPRPIVYPRP,-0.0876
23,RRIRKRPPRLPRPRPRPHYIPRP,-0.123
24,RRIRRRPPRLPRPRPRPDMVPRP,0.206
25,RRIRLRPPRLPRPRPRPKITPRP,-0.203

row,Sequence,shrunken log2 fold change
1,RRIRQRPPRLPRPRPRPQKGPRP,0.011
2,RRIRCRPPRLPRPRPRPFHLPRP,-1.11
3,RRIRDRPPRLPRPRPRPRCEPRP,0.161
4,RRIRDRPPRLPRPRPRPHKRPRP,-0.0521
5,RRIRKRPPRLPRPRPRPHFQPRP,0.0821
6,RRIRKRPPRLPRPRPRPCFYPRP,-0.115
7,RRIRNRPPRLPRPRPRPDDIPRP,0.0399
8,RRIRERPPRLPRPRPRPYDVPRP,-0.000921
9,RRIRMRPPRLPRPRPRPEYCPRP,0.0929
10,RRIRGRPPRLPRPRPRPIWVPRP,-0.0275
11,RRIRARPPRLPRPRPRPGMPPRP,0.128
12,RRIRVRPPRLPRPRPRPAYHPRP,-0.316
13,RRIRHRPPRLPRPRPRPYMVPRP,-0.0357
14,RRIRKRPPRLPRPRPRPTKCPRP,-0.184
15,RRIRIRPPRLPRPRPRPHNPPRP,-1.23
16,RRIRPRPPRLPRPRPRPKHNPRP,-0.303
17,RRIRLRPPRLPRPRPRPINPPRP,0.132
18,RRIRARPPRLPRPRPRPMIFPRP,0.292
19,RRIRCRPPRLPRPRPRPVELPRP,0.103
20,RRIRHRPPRLPRPRPRPLTIPRP,-0.207
21,RRIRKRPPRLPRPRPRPITDPRP,-0.128
22,RRIRHRPPRLPRPRPRPPERPRP,0.511
23,RRIRSRPPRLPRPRPRPWLSPRP,-0.00679
24,RRIRPRPPRLPRPRPRPFVRPRP,-0.117
25,RRIRGRPPRLPRPRPRPKLYPRP,0.354

row,Sequence,shrunken log2 fold change
1,RRIRIRPPRLPRPRPRPWTPPRP,-0.179
2,RRIRRRPPRLPRPRPRPEWQPRP,0.0758
3,RRIRVRPPRLPRPRPRPHTMPRP,-0.252
4,RRIRMRPPRLPRPRPRPCNKPRP,-0.372
5,RRIRERPPRLPRPRPRPCIAPRP,-0.753
6,RRIRQRPPRLPRPRPRPQFIPRP,-0.0627
7,RRIRTRPPRLPRPRPRPWWVPRP,-0.0227
8,RRIRKRPPRLPRPRPRPCLTPRP,-0.0179
9,RRIRMRPPRLPRPRPRPHTTPRP,-0.0908
10,RRIRYRPPRLPRPRPRPRENPRP,0.0246
11,RRIRTRPPRLPRPRPRPTAYPRP,-0.0821
12,RRIRLRPPRLPRPRPRPFNTPRP,0.724
13,RRIRVRPPRLPRPRPRPLHQPRP,0.0791
14,RRIRPRPPRLPRPRPRPIVCPRP,-0.228
15,RRIRVRPPRLPRPRPRPPDQPRP,0.124
16,RRIRSRPPRLPRPRPRPLQWPRP,-0.0911
17,RRIRCRPPRLPRPRPRPMIGPRP,-0.0953
18,RRIRSRPPRLPRPRPRPKEAPRP,-0.144
19,RRIRSRPPRLPRPRPRPSSRPRP,-0.288
20,RRIRVRPPRLPRPRPRPNMEPRP,-0.151
21,RRIRGRPPRLPRPRPRPNYVPRP,0.216
22,RRIRFRPPRLPRPRPRPVQTPRP,0.0206
23,RRIRPRPPRLPRPRPRPDFSPRP,0.0658
24,RRIRIRPPRLPRPRPRPTYEPRP,-0.458
25,RRIRLRPPRLPRPRPRPMMNPRP,-0.18
